In patent publication US20260115256A1 (HANGZHOU SCIWIND BIOSCIENCES, published 2026):
*1 amine or outer side, *2 acyl side, *3 side chain or, on linkers, in order; H or OH if unused. Bridges are numbered along the chain shown (N, C = ends). Where no end group is shown, it is not given here. Side-chain parts run from the residue outwards. [ ]: non-standard residue; d: D form. The star is where a group is joined. C20 diacid = O=C(O)CCCCCCCCCCCCCCCCCCC(=O)*; C18 diacid = O=C(O)CCCCCCCCCCCCCCCCC(=O)*; γGlu = O=C(O)[C@H](CCC(=O)[*:2])N[*:1]; Hyp = O=C(O)[C@@H]1C[C@@H](O)CN1; hArg = N=C(N)NCCCC[C@H](N)C(=O)O; Orn = NCCC[C@H](N)C(=O)O; Dab = NCC[C@H](N)C(=O)O; Dap = NC[C@H](N)C(=O)O; AEEA = NCCOCCOCC(=O)O

B1: PD100 (peptide)
peptide: RCNTATCATQRLADFLRHK([γGlu-C18 diacid])SNNLGPILPPTNVGSNT[Hyp]-NH2
modifications: disulfide 2-7 (inferred)
B2: PD072 (peptide)
peptide: K([γGlu-C20 diacid])CNTATCATQRLADFLRHSSNNLKPILPPTNVGSNT[Hyp]-NH2
modifications: disulfide 2-7 (inferred)
B3: PD094 (peptide)
peptide: RCNTATCATQRLADFLRHSK([γGlu-C20 diacid])NNLGPILPPTNVGSNT[Hyp]-NH2
modifications: disulfide 2-7 (inferred)
B4: PD093 (peptide)
peptide: RCNTATCATQRLADFLRHSSK([AEEA-AEEA-γGlu-C18 diacid])NLGPILPPTNVGSNT[Hyp]-NH2
modifications: disulfide 2-7 (inferred)
B5: PD097 (peptide)
peptide: RCNTATCATQRLADFLRHSK([AEEA-AEEA-γGlu-C18 diacid])NNLGPILPPTNVGSNT[Hyp]-NH2
modifications: disulfide 2-7 (inferred)
B6: PD101 (peptide)
peptide: RCNTATCATQRLADFLRHK([AEEA-AEEA-γGlu-C18 diacid])SNNLGPILPPTNVGSNT[Hyp]-NH2
modifications: disulfide 2-7 (inferred)
B7: PD071 (peptide)
peptide: {C20 diacid-γGlu}-KCNTATCATQRLADFLRHSSNNLKPILPPTNVGSNT[Hyp]-NH2
modifications: disulfide 2-7 (inferred)
B8: PD087 (peptide)
peptide: RCNTATCATQRLADFLRHSSNK([AEEA-AEEA-γGlu-C20 diacid])LGPILPPTNVGSNT[Hyp]-NH2
modifications: disulfide 2-7 (inferred)
B9: PD008 (peptide)
peptide: RCNTATCATQRLAEFLRHSSNNK([γGlu-C20 diacid])GPILPPTNVGSNTP-NH2
modifications: disulfide 2-7 (inferred)
B10: PD092 (peptide)
peptide: RCNTATCATQRLADFLRHSSK([γGlu-C18 diacid])NLGPILPPTNVGSNT[Hyp]-NH2
modifications: disulfide 2-7 (inferred)
B11: PD096 (peptide)
peptide: RCNTATCATQRLADFLRHSK([γGlu-C18 diacid])NNLGPILPPTNVGSNT[Hyp]-NH2
modifications: disulfide 2-7 (inferred)
B12: PD077 (peptide)
peptide: [hArg]CNTATCATQRLADFLRHSSNNLK([γGlu-C20 diacid])PILPPTNVGSNT[Hyp]-NH2
modifications: disulfide 2-7 (inferred)
B13: PD076 (peptide)
peptide: KCNTATCATQRLADFLRHSSNNLK([γGlu-C20 diacid])PILPPTNVGSNT[Hyp]-NH2
modifications: disulfide 2-7 (inferred)
B14: PD007 (peptide)
peptide: RCNTATCATQRLAEFLRHSSNK([γGlu-C20 diacid])LGPILPPTNVGSNTP-NH2
modifications: disulfide 2-7 (inferred)
B15: PD073 (peptide)
peptide: [Dap]CNTATCATQRLADFLRHSSNNLK([γGlu-C20 diacid])PILPPTNVGSNT[Hyp]-NH2
modifications: disulfide 2-7 (inferred)
B16: PD084 (peptide)
peptide: RCNTATCATQRLADFLRHSSNNK([γGlu-C18 diacid])GPILPPTNVGSNT[Hyp]-NH2
modifications: disulfide 2-7 (inferred)
B17: PD080 (peptide)
peptide: ECNTATCATQRLADFLRHSSNNLK([γGlu-C20 diacid])PILPPTNVGSNT[Hyp]-NH2
modifications: disulfide 2-7 (inferred)
B18: PD098 (peptide)
peptide: RCNTATCATQRLADFLRHK([γGlu-C20 diacid])SNNLGPILPPTNVGSNT[Hyp]-NH2
modifications: disulfide 2-7 (inferred)
B19: PD091 (peptide)
peptide: RCNTATCATQRLADFLRHSSK([AEEA-AEEA-γGlu-C20 diacid])NLGPILPPTNVGSNT[Hyp]-NH2
modifications: disulfide 2-7 (inferred)
B20: PD099 (peptide)
peptide: RCNTATCATQRLADFLRHK([AEEA-AEEA-γGlu-C20 diacid])SNNLGPILPPTNVGSNT[Hyp]-NH2
modifications: disulfide 2-7 (inferred)
B21: PD006 (peptide)
peptide: RCNTATCATQRLAEFLRHSSK([γGlu-C20 diacid])NLGPILPPTNVGSNTP-NH2
modifications: disulfide 2-7 (inferred)
B22: PD090 (peptide)
peptide: RCNTATCATQRLADFLRHSSK([γGlu-C20 diacid])NLGPILPPTNVGSNT[Hyp]-NH2
modifications: disulfide 2-7 (inferred)
B23: PD075 (peptide)
peptide: [Orn]CNTATCATQRLADFLRHSSNNLK([γGlu-C20 diacid])PILPPTNVGSNT[Hyp]-NH2
modifications: disulfide 2-7 (inferred)
B24: PD086 (peptide)
peptide: RCNTATCATQRLADFLRHSSNK([γGlu-C20 diacid])LGPILPPTNVGSNT[Hyp]-NH2
modifications: disulfide 2-7 (inferred)
B25: PD078 (peptide)
peptide: HCNTATCATQRLADFLRHSSNNLK([γGlu-C20 diacid])PILPPTNVGSNT[Hyp]-NH2
modifications: disulfide 2-7 (inferred)
B26: PD082 (peptide)
peptide: RCNTATCATQRLADFLRHSSNNK([γGlu-C20 diacid])GPILPPTNVGSNT[Hyp]-NH2
modifications: disulfide 2-7 (inferred)
B27: PD083 (peptide)
peptide: RCNTATCATQRLADFLRHSSNNK([AEEA-AEEA-γGlu-C20 diacid])GPILPPTNVGSNT[Hyp]-NH2
modifications: disulfide 2-7 (inferred)
B28: PD088 (peptide)
peptide: RCNTATCATQRLADFLRHSSNK([γGlu-C18 diacid])LGPILPPTNVGSNT[Hyp]-NH2
modifications: disulfide 2-7 (inferred)
B29: PD074 (peptide)
peptide: [Dab]CNTATCATQRLADFLRHSSNNLK([γGlu-C20 diacid])PILPPTNVGSNT[Hyp]-NH2
modifications: disulfide 2-7 (inferred)
B30: PD095 (peptide)
peptide: RCNTATCATQRLADFLRHSK([AEEA-AEEA-γGlu-C20 diacid])NNLGPILPPTNVGSNT[Hyp]-NH2
modifications: disulfide 2-7 (inferred)
B31: PD081 (peptide)
peptide: RCNTATCATQRLADFLRHSSNNLK([AEEA-AEEA-γGlu-C20 diacid])PILPPTNVGSNT[Hyp]-NH2
modifications: disulfide 2-7 (inferred)
B32: PD079 (peptide)
peptide: DCNTATCATQRLADFLRHSSNNLK([γGlu-C20 diacid])PILPPTNVGSNT[Hyp]-NH2
modifications: disulfide 2-7 (inferred)
B33: PD102 (peptide)
peptide: RCNTATCATQRLADFLRHSSNNLGK([γGlu-C20 diacid])ILPPTNVGSNT[Hyp]-NH2
modifications: disulfide 2-7 (inferred)
B34: PD089 (peptide)
peptide: RCNTATCATQRLADFLRHSSNK([AEEA-AEEA-γGlu-C18 diacid])LGPILPPTNVGSNT[Hyp]-NH2
modifications: disulfide 2-7 (inferred)
B35: PD085 (peptide)
peptide: RCNTATCATQRLADFLRHSSNNK([AEEA-AEEA-γGlu-C18 diacid])GPILPPTNVGSNT[Hyp]-NH2
modifications: disulfide 2-7 (inferred)

target: T1, human amylin receptor (AMY3) on CHO-K1/Ga15/AMY3 cells (human, UniProt P30988 25-474; O60896 24-148); experiment: cell-based or functional assay
T1 sequence (looked up) 1: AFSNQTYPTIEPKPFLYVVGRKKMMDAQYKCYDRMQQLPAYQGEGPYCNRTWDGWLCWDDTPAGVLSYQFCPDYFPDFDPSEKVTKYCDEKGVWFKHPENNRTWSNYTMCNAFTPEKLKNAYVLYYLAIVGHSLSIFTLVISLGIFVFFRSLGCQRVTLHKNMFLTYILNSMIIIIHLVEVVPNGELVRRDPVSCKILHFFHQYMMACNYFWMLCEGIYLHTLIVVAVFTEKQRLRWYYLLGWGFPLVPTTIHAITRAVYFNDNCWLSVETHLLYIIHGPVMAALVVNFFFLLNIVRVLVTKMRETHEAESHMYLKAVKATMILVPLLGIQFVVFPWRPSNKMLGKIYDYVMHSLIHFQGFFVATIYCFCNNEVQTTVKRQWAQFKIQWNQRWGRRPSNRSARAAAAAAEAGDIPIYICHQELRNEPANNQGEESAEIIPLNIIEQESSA
T1 sequence (looked up) 2: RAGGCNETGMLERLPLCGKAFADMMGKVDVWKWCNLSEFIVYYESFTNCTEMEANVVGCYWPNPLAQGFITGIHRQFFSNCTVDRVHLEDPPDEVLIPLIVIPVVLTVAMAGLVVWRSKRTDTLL

Point of comparison: B34, “EC50, CRE-luciferase assay” value 0.018 nM. Against it:
- B1 — 3.3-fold higher, 0.06 nM
- B2 — 1.5-fold higher, 0.027 nM
- B3 — 1.9-fold higher, 0.034 nM
- B4 — within 1.5-fold, 0.019 nM
- B5 — within 1.5-fold, 0.014 nM
- B6 — within 1.5-fold, 0.012 nM
- B7 — 1.6-fold higher, 0.028 nM
- B8 — 1.8-fold higher, 0.032 nM
- B9 — 16-fold higher, 0.281 nM
- B10 — within 1.5-fold, 0.016 nM
- B11 — 2.3-fold higher, 0.042 nM
- B12 — 1.9-fold higher, 0.034 nM
- B13 — 2.2-fold higher, 0.04 nM
- B14 — 11-fold higher, 0.205 nM
- B15 — 3.5-fold higher, 0.063 nM
- B16 — 2.2-fold lower, 0.008 nM
- B17 — 6.1-fold higher, 0.11 nM
- B18 — 4.3-fold higher, 0.077 nM
- B19 — 1.7-fold higher, 0.03 nM
- B20 — 1.8-fold higher, 0.033 nM
- B21 — 7.2-fold higher, 0.129 nM
- B22 — 1.7-fold higher, 0.031 nM
- B23 — 2.7-fold higher, 0.048 nM
- B24 — 1.8-fold higher, 0.033 nM
- B25 — 1.9-fold higher, 0.035 nM
- B26 — 2.1-fold higher, 0.038 nM
- B27 — 2.1-fold higher, 0.037 nM
- B28 — within 1.5-fold, 0.013 nM
- B29 — 3.7-fold higher, 0.066 nM
- B30 — 2.6-fold higher, 0.047 nM
- B31 — 1.7-fold higher, 0.031 nM
- B32 — 7.3-fold higher, 0.131 nM
- B33 — 1.8-fold higher, 0.033 nM
- B35 — 3.6-fold lower, 0.005 nM
